Source: patent US20170037149A1 (Amgen, published 2017)
Substitutions are numbered along the chain they refer to.

B1: FL-5 scFv (scFv)
scFv: QVTLKESGPMLVKPTETLTLTCTFSGFSLRNARMGVSWIRQPPGKALEWLAHIFWNDEKSYSTSLKSRLTISKDTSKSQVVLTMTNMDPVDTATYYCARIPYYGSGSYNYGMDVWGQGTTVTVSSGGGGSGGGGSGGGGSDIQMTQSPSSLSASVGDRVTITCRASQGIRNDLGWYQQKPGKAPKRLIYAASSLQSGVPSRFSGSGSGTEFTLTISSLQPEDFATYYCLQHNTYPLTFGGGTKVDIK
notes: periplasmic prep
B2: FL-34 scFv (scFv)
scFv: B1 scFv with M10A, T233S, V244L, D245E
notes: periplasmic prep
B3: FL-48 scFv (scFv)
scFv: B1 scFv with A46C, G240C
notes: periplasmic prep
B4: FL-54 scFv (scFv)
scFv: QVQLVESGGGVVQPGRSLRLSCAASGFTFSSYGMHWVRQAPGKCLEWVAVISYDGSNEFYADSVKGRFTISRDNSKNTLYLQMNSLRAEDTAVYYCARGGEITMVRGVIGYYYYGMDVWGQGTTVTVSSGGGGSGGGGSGGGGSEIVMTQSPATLSVSPGERATLSCRASQGVRNNLVWYQQKPGQAPRLLIYGASTRATGIPARFSGSGSGTEFTLTISSLQSEDFATYYCLQHNSYPLTFGCGTKVEIK
notes: periplasmic prep
B5: FL-62 scFv (scFv)
scFv: B4 scFv with C44G, C244G
notes: periplasmic prep; also called F-62
B6: FL-57 scFv (scFv)
scFv: QVTLKESGPTLVKPTETLTLTCTFSGFSLRYARMGVSWIRQPPGKALEWLAHISSNDEKSFSTALESRLTISTDTSKSQMVLTMTNVDPVDTATYYCARMPGDSNTWRGFFDYWGQGTLVTVSSGGGGSGGGGSGGGGSEIVMTQSPGTLSLSPGERATLSCRTSQTVTNSYIAWYQQRPGQAPRLLIYGTSTRATGIPDRFSGSGSGTDFTLTISRLEPEDFAVYYCQKYGSSPLTFGGGTKLEIK
notes: periplasmic prep
B7: FL-63 scFv (scFv)
scFv: QVQLVESGGGVVQPGRSLRLSCAASGFTFSSYGMHWVRQAPGKGLEWVAVISYDGSNEFYADSVKGRFTISRDNSKNTLYLQMNSLRAEDTAVYYCARGGEITMVRGVIGYYYYGMDVWGQGTTVTVSSGGGGSGGGGSGGGGSDIQMTQSPSSLSASVGDRVTITCRTSQSISSYLNWYQQKPGKAPKLLIYAASSLQSGVPSRFSGSGSGTEFTLTISSLQPEDFATYYCLQHNSYPLTFGGGTKVDIK
notes: periplasmic prep
B8: FL-64 scFv (scFv)
scFv: B7 scFv with D161N, T169A
notes: periplasmic prep
B9: FL-53 scFv (scFv)
scFv: B7 scFv with G44C, G244C
notes: periplasmic prep
B10: FL-61 scFv (scFv)
scFv: B7 scFv with T169A, D249E
notes: periplasmic prep
B11: FL-49 scFv (scFv)
scFv: QVTLKESGPTLVKPTETLTLTCTVSGFSLNNARMGVSWIRQPPGKCLEWLAHIFSNDEKSYSTSLKNRLTISKDSSKTQVVLTMTNVDPVDTATYYCARIVGYGTGWFGYFDYWGQGTQVTVSSGGGGSGGGGSGGGGSDIQMTQSPSSLSASVGDRVTITCRASQDIRTDLAWYQQKPGKAPKRLIYAASSLQSGVPSRFSGSGSGTEFTLTISSLQPEDFATYYCLQHNRYPLTFGCGTKVDIK
notes: periplasmic prep
B12: FL-9 scFv (scFv)
scFv: QVTLKESGPTLVKPTETLTLTCTVSGFSLSNARMGVSWIRQPPGKALEWLAHIFSNDEKSYSTSLKSRLTISKDTSKSQVVLTMTNMDPVDTATYYCARIPGYGGNFYYHYYGMDVWGQGTTVTVSSGGGGSGGGGSGGGGSDIQMTQSPSSLSASVGDRVTITCRASQGIRNDLAWYQQKPGKAPKRLIYAASTVQSGVPSRFSGSGSGTEFALTISSLQPEDFATYYCLQHNSFPWTFGQGTKVDIK
notes: periplasmic prep
B13: FL-50 scFv (scFv)
scFv: B12 scFv with A46C, Q242C
notes: periplasmic prep
B14: FL-21 scFv (scFv)
scFv: QVTLKESGPALVKPTETLTLTCTFSGFSLSNARMGVSWIRQPPGKALEWLAHIFSNDEKSYSTSLKSRLTISKDTSKSQVVLTMTNMDPVDTATYYCARIPGYGGNFYYHYYGMDVWGQGTTVTVSSGGGGSGGGGSGGGGSDIQMTQSPSSLSASVGDRVTITCRTSRGIRNDLGWYQQIPGRAPKRLIYAASTLQSGVPSRFSGSGSGTEFTLTISSLQPEDFATYYCLQHNNFPWTFGQGTKVEIK
notes: periplasmic prep
B15: FL-39 scFv (scFv)
scFv: QVTLKESGPTLVKPTETLTLTCTLSGFSLNNARMGVSWIRQPPGKCLEWLAHIFSNDEKSYSTSLKNRLTISKDSSKTQVVLTMTNVDPVDTATYYCARIVGYGSGWYGFFDYWGQGTLVTVSSGGGGSGGGGSGGGGSDIQMTQSPSSLSASVGDRVTITCRASQGIRNDLGWYQQKPGKAPKRLIYAASTLQSGVPSRFSGSGSGTEFTLTISSLQPEDFATYYCLQHNSYPLTFGCGTKVEIK
notes: periplasmic prep
B16: FL-45 scFv (scFv)
scFv: QVTLKESGPALVKPTQTLTLTCTFSGFSLSNARMGVSWIRQPPGKCLEWLAHIFSNDEKSYRTSLKSRLTISKDTSKSQVVLTMTNMDPVDTATYYCARIVGYGSGWYAYFDYWGQGTLVTVSSGGGGSGGGGSGGGGSDIQMTQSPSSLSASVGDRVTITCRASQGIRNDLGWYQQKPGKAPKRLIYAASSLQSGVPSRFSGSGSGTEFTLTISSLQPEDFATYYCLQHNSYPLTFGCGTKVEIK
notes: periplasmic prep
B17: FL-42 scFv (scFv)
scFv: QVTLKESGPALVKPTETLTLTCTLSGFSLNNARMAVSWIRQPPGKCLEWLAHIFSNDEKSYSTSLKSRLTISKDTSKSQVVLTMTNMDPEDTATYYCARIVGYGTGWYGFFDYWGQGILVTVSSGGGGSGGGGSGGGGSDIQMTQSPSSLSASVGDRVTITCRASQGIRNDLAWYQQKPGKAPKRLIYAASSLQSGVPSRFSGSGSGTEFTLTISSLQPEDFATYYCLQHNSYPLTFGCGTKVEIK
notes: periplasmic prep
B18: FL-46 scFv (scFv)
scFv: QVTLKESGPVLVKPTQTLTLTCTFSGFSLSNARMGVSWIRQPPGKCLEWLALIYWNDDKRYSPSLKSRLTITKDTSKNQVVLTMTNMDPVDTATYYCARMVGYGSGWYAYFDYWGQGTLVTVSSGGGGSGGGGSGGGGSDIQMTQSPSSLSASVGDRVTITCRASQGIRNDLGWYQQKPGKAPKRLIYAASSLQSGVPSRFSGSGSGTEFTLTISSLQPEDFATYYCLQHNSYPLTFGCGTKVEIK
notes: periplasmic prep
B19: FL-47 scFv (scFv)
scFv: B17 scFv with E16Q, L24F, N30S, A35G, N86D, A164T, A173G
notes: periplasmic prep
B20: FL-60 scFv (scFv)
scFv: QVTLKESGPALVKPTQTLTLTCTFSGFSLSNARMGVSWIRQPPGKALEWLAHIFSNDEKSYSTSLKSRLTISKDTSKRQVVLTMTNMDPVDTATYYCARMVGYGSGWYAYFDYWGQGTLVTVSSGGGGSGGGGSGGGGSDIVMTQTPLSLSVTPGQPASISCRSSQSLLHSNGYNYLYWYLQKPGQPPQLLIYEVSNRFSGVPDRFSGSGSGTDFTLKISRVEAEDVGVYYCMQALQTPLTFGGGTKVEIK
notes: periplasmic prep
B21: FL-56 scFv (scFv)
scFv: QVTLKESGPVLVKPTETLTLTCTVSGFSLRNVRMGVSWIRQPPGKALEWLAHIFSNDEKLYTTSLKSRLTISKDTSKSQVVLTMTNMDPEDTATYYCARIVGYGTGWYGYFDYWGQGTQVTVSSGGGGSGGGGSGGGGSDIQMTQSPSSLSASIGDRVTITCRASQDIRDDLGWYQREPGKAPKRLIYATSIRQSGVPSRFSGSGSGTEFTLTISGLQPEDFATYFCLQHHSFPLTFGGGTKVDIK
notes: periplasmic prep
B22: FL-51 scFv (scFv)
scFv: QVTLKESGPTLVKPTETLTLTCTVSGFSLRNVRMGVSWIRQPPGKCLEWLAHISSNDEKSYSTSLRSRLTISTDTSKSQVVLTMTNMDPVDTATYYCARMPGDSNTWRGFFDYWGQGTLVTVSSGGGGSGGGGSGGGGSEIVMTQSPATLSVSPGERATLSCRTSQSVNNNLAWYQQKPGQAPRLLIYGASTRATGIPARFSGSGSGTEFTLTISSLQPEDFATYYCLQHNSYPLTFGCGTKVEIK
notes: periplasmic prep
B23: FL-58 scFv (scFv)
scFv: B22 scFv with C46A, C239G
notes: periplasmic prep
B24: FL-55 scFv (scFv)
scFv: QVQLVESGGGVVQPGRSLRLSCAASGFTFSSYGMHWVRQAPGKCLEWVAVISYDGSNKYYADSVKGRFTISRDNSKNTLYLQMNSLRAEDTAVYYCARSYGMDVWGQGTTVTVSSGGGGSGGGGSGGGGSDIQMTQSPSSVSASVGDRVTITCRASQGISSWLAWYQQKPGKAPKLLIYAASSLQSGVPSRFSGSGSGTDFTLTISSLQPEDFATYYCQQANSFPWTFGCGTKLEIK
notes: periplasmic prep
B25: FL-65 scFv (scFv)
scFv: B24 scFv with C44G, C230Q
notes: periplasmic prep

What follows are binders tested against T1, human FLT3 (human, UniProt P36888 27-993) (assay: FACS, scFv on CHO-human FLT3 pre-incubated with FLT3 ligand (competitor)).
T1 construct: On transfected CHO cells, or on the FLT3 positive human AML cell lines EOL-1 / MV4-11 where the row says so; also called hu FLT3; full length human FLT3
Experimental: The detection was performed using mouse anti-FLAG+PE-conjugated goat anti-mouse and the Fluorescence median detected by FACS (median (+ligand)/median (w/o ligand)*100%)
Afterwards cells were not washed but directly stained with FLT3 binder (scFv's). […] As negative control, cells were incubated with an unspecific scFv instead of FLT3 scFv.
For the evaluation of the data, the fluorescence median was detected by FACS.
For B1, the “median [+ligand]/median [w/o ligand]*100” value was at least 75%.
With B2 the “median [+ligand]/median [w/o ligand]*100” value was at least 75%.
B3 was tested, and the “median [+ligand]/median [w/o ligand]*100” value was at least 75%.
B4 was tested, and the “median [+ligand]/median [w/o ligand]*100” value was at least 75%.
For B5, the “median [+ligand]/median [w/o ligand]*100” value was at least 75%.
For B6, the “median [+ligand]/median [w/o ligand]*100” value was at least 75%.
B7 was tested, and the “median [+ligand]/median [w/o ligand]*100” value was at least 75%.
For B8, the “median [+ligand]/median [w/o ligand]*100” value was at least 75%.
With B9 the “median [+ligand]/median [w/o ligand]*100” value was at least 75%.
B10 was tested, and the “median [+ligand]/median [w/o ligand]*100” value was at least 75%.
With B11 the “median [+ligand]/median [w/o ligand]*100” value was at least 75%.
With B12 the “median [+ligand]/median [w/o ligand]*100” value was at least 75%.
With B13 the “median [+ligand]/median [w/o ligand]*100” value was at least 75%.
For B14, the “median [+ligand]/median [w/o ligand]*100” value was at least 75%.
B15 was tested, and the “median [+ligand]/median [w/o ligand]*100” value was at least 75%.
For B16, the “median [+ligand]/median [w/o ligand]*100” value was at least 75%.
B17 was tested, and the “median [+ligand]/median [w/o ligand]*100” value was at least 75%.
For B18, the “median [+ligand]/median [w/o ligand]*100” value was at least 75%.
B19 was tested, and the “median [+ligand]/median [w/o ligand]*100” value was at least 75%.
In the case of B20, the “median [+ligand]/median [w/o ligand]*100” value is reported as at least 75%.
With B21 the “median [+ligand]/median [w/o ligand]*100” value was at least 75%.
In the case of B22, the “median [+ligand]/median [w/o ligand]*100” value is reported as at least 75%.
B23 was tested, and the “median [+ligand]/median [w/o ligand]*100” value was at least 75%.
In the case of B24, the “median [+ligand]/median [w/o ligand]*100” value is reported as at least 75%.
B25 was tested, and the “median [+ligand]/median [w/o ligand]*100” value was at least 75%.
